This data set relates to T1, Serp-1 (myxomavirus-derived serine protease inhibitor).
T1 sequence: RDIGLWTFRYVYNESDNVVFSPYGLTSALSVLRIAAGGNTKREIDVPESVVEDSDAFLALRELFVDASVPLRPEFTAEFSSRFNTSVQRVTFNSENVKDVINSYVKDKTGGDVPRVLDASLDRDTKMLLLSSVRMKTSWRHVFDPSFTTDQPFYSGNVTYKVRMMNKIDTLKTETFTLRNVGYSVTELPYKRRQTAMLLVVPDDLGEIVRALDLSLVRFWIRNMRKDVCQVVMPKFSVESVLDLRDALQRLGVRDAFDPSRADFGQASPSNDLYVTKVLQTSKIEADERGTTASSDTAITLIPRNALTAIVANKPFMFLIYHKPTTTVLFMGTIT

Consider “urokinase-type plasminogen activator (uPA)”, for which the “uPA activity in an in vitro substrate conversion assay” value is reported as “Serp-1 inhibition of uPA activity in an in vitro substrate conversion assay is not affected by the presence of a broad-spectrum antibiotic cocktail”.

For the origin of these results see patent publication US20220088117.
